The target of series [1] is T1, FtsR-Strep (Corynebacterium glutamicum ATCC13032) (UniProt Q8NQJ2).
T1 sequence: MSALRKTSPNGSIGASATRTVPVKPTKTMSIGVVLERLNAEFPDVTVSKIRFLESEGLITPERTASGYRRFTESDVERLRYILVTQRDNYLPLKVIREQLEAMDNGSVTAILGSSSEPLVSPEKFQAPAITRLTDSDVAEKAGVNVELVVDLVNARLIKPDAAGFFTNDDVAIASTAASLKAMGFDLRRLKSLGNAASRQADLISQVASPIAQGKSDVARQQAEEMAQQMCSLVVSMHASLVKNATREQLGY
Nature of the series: competition. Conditions: EMSA: 10 mM Tris-HCl pH 7.5, 30 mM NaCl, 1.5 mM Na2EDTA, room temperature, 30 min; 15% native PAGE in 1x TBE (competition EMSA: 10% gel). In general terms: A gel shift assay detects complexes by their altered migration in electrophoresis.

The target in series [2] is T1, FtsR-Strep (Corynebacterium glutamicum ATCC13032). Put plainly: EMSA. To be noted: EMSA: 10 mM Tris-HCl pH 7.5, 30 mM NaCl, 1.5 mM Na2EDTA, room temperature, 30 min; 15% native PAGE in 1x TBE (competition EMSA: 10% gel).
The target of series [3] is FtsR-Strep (FtsR, Cg1631, of Corynebacterium glutamicum ATCC13032 with C-terminal StrepTag-II) (Corynebacterium glutamicum ATCC13032). Nature of the series: SEC; affinity-purified FtsR-Strep on Superdex 200 Increase 10/300 GL, buffer W (50 mM Tris-HCl, 250 mM NaCl, pH 7.5), 0.6 mL/min; compared to standard proteins. (SEC sorts molecules by how far they enter the pores of the column.)

For the next series, the target named is T2, FtsR-Strep (Corynebacterium glutamicum ATCC13032, UniProt Q8NQJ2 1-252).
T2 sequence: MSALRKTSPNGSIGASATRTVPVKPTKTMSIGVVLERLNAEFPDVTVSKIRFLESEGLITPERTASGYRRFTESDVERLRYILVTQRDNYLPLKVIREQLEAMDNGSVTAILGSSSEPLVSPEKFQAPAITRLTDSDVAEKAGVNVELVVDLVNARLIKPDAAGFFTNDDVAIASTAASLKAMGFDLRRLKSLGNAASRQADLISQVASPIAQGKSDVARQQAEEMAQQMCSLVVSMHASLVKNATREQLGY
Nature of the series: EMSA; 1 uM DNA; complete shift at 2-fold molar excess of dimer; EMSA: 10 mM Tris-HCl pH 7.5, 30 mM NaCl, 1.5 mM Na2EDTA, room temperature, 30 min; 15% native PAGE in 1x TBE (competition EMSA: 10% gel). Conditions: protein: recombinant; chain copies: 2; blunt.

“AGTGCTTCCTGCGGTTATTGCTGTAATCAACGCAATTAAAGCGCAAGATGCGCAGATGACAGAAAGTATCCAGGTAGTGGAAGCTCCGGATCAATTTGATATCTTGCTGAAAATGAATGATGGCCGGGAAATCTACTGGGGATCCTCGGAAAACAACCACGATAAAGCGGTGGCAATGTCGACTGTTTTGAAGCGGGAAGGCCAACGTTGGAACATTAGCTCACCCTCAATGGTGACAGTCCGCTAAAGTGGCTGGGTAG (double strand)”: the binding entry in series [1] is on record as “no binding”.

Turning to “AGTTCCGGTTCACCCGTTTCCACAACGCGTTTGCCCACCTCAACAACCCTAAAGTAAAGGTTGAGGGTAGCGACACGCCGCTGTAAATGTCCGACACATTGACGTGTTTTTCGCACAAGATATATGTCAGCCGGATTAACACTTTTAGATAAGCTCTCACAGTGCTGACTGCTTATCTGAGATGAAAATAAAAGCAAAATTTTTTTTAGTATCAACTCTTCGAAAGGCGAGACATCGACAATGACCTCACCGAACAACTACCTCGCCAAGA (double strand) [ftsZ promoter 271-bp fragment, Cy3]”, the binding entry in series [2] is on record as “binds”. Molecule “FtsR-Strep (FtsR, Cg1631, of Corynebacterium glutamicum ATCC13032 with C-terminal StrepTag-II) (natural protein)” came in with a stoichiometry N in series [3] of 2. Consider “AGTTCCGGTTCACCCGTTTCCACAACGCGTTTGCCCACCTCAACAACCCTAAAGTAAAGGTTGAGGGTAGCGACACGCCGCTGTAAATGTCCGACACATTGACGTGTTTTTCGCACAAGATATATGTCAGCCGGATTAACACTTTTAGATAAGCTCTCACAGTGCTGACTGCTTATCTGAGATGAAAATAAAAGCAAAATTTTTTTTAGTATCAACTCTTCGAAAGGCGAGACATCGACAATGACCTCACCGAACAACTACCTCGCCAAGA (double strand) [ftsZ promoter 271-bp fragment, unlabeled specific competitor]”, for which, in series [1], the binding result was “binds”.

B1: ftsZ promoter 30-bp oligo (dsDNA)
DNA 1: ACAACCCTAAAGTAAAGGTTGAGGGTAGCG
DNA 2: CGCTACCCTCAACCTTTACTTTAGGGTTGT
Consider B1, for which, in the series with FtsR-Strep, the binding result is “binds”.

Broadly, the stoichiometry N is the number of molecules, sites or subunits per partner or assembly.

For the origin of these results see article PMC6683498, “The conserved actinobacterial transcriptional regulator FtsR controls expression of ftsZ and further target genes and influences growth and cell division in Corynebacterium glutamicum”.
